Test results taken from patent publication US20200392230A1 (QLB BIOTHERAPEUTICS, published 2020).

T1: CD20 (UniProt P11836 1-297, limits assumed)
T1 construct: whole, on cells; also called CD20 on Raji cells; CD20 on Daudi cells
T1 sequence (looked up): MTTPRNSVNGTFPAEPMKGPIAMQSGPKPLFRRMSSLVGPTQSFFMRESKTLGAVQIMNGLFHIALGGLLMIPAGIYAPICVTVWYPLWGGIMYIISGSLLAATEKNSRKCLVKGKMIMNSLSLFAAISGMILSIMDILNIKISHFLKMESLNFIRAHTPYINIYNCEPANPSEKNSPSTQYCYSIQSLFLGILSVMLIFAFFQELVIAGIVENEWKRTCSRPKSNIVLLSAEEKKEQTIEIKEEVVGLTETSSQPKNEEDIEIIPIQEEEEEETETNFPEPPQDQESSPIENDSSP


What was measured:
[1] = molecular target: T2, CD3 (UniProt P07766 23-207); assay: FACS, cell surface binding on Jurkat cells (CD3+), fluorescent secondary antibody, MFI
T2 construct: whole, on cells; In the functional assays CD3 stood on engineered effector cells or on T cells of human PBMCs; also called CD3 on Jurkat cells; TCR/CD3 complex
Method: (§1) After washing in phosphate buffered saline (PBS), fluorescence conjugated secondary antibodies were added to the cell mixture. The stained cells were analyzed in an LSR II FACS machine (BD Biosciences). Mean fluorescence intensity (MFI) was used to indicate the binding strength of the tested antibodies.

[2] = molecular target: T1, CD20; assay: FACS, cell surface binding on Raji cells
Method: as §1

T2 sequence (P07766 23-207): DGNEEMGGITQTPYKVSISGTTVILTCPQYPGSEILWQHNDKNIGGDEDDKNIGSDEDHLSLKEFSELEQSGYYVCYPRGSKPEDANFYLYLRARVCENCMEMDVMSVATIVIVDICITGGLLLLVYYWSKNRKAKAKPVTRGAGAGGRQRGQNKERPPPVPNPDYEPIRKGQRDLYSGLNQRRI

Binder	EC50 [1]	binding result [2]
QLB1005-0002 (bispecific antibody, human IgG1, scFv-Fc format with Knob-in-Hole and L234A, L235A (LALA) mutations in a human IgG1 Fc; The text also prints the name as QLB1005-02000; also called QLB1005-02000; QLB-1005-02000) chain 1: EVQLVESGGGLVQPGGSLKLSCAASGFTFNTYAMNWVRQASGKGLEWVARIRSKYNNYATYYADSVKDRFTISRDDSKNTLYLQMNSLKTEDTAVYYCVRHGNFGNSYVSWFAYWGQGTLVTVSSGGGGSGGGGSGGGGSQAVVTQEPSLTVSPGGTVTLTCRSSTGAVTTSNYANWVQQKPGQAPRGLIGGTNKRAPGVPARFSGSLLGDKAALTLSGAQPEDEAEYYCALWYSNLWVFGTGTKVTVLGGGGSGGGGSGGGGSPKSCDKTHTCPPCPAPEAAGGPSVFLFPPKPKDTLMISRTPEVTCVVVDVSHEDPEVKFNWYVDGVEVHNAKTKPREEQYNSTYRVVSVLTVLHQDWLNGKEYKCKVSNKALGAPIEKTISKAKGQPREPQVCTLPPSRDELTKNQVSLSCAVKGFYPSDIAVEWESNGQPENNYKTTPPVLDSDGSFFLVSKLTVDKSRWQQGNVFSCSVMHEALHNHYTQKSLSLSPGK chain 2: not shown	98.2 nM	–
QLB1005-0001 (bispecific antibody, NCI/NIH CH1-CK stabilized Fab format; the CH1 and CK domains form a heterodimer via a disulphide bond; also called anti-CD3×CD20 BsAb; Fab format (VL-VH-CH1/VL-VH-CK)) chain 1: QAVVTQEPSLTVSPGGTVTLTCRSSTGAVTTSNYANWVQQKPGQAPRGLIGGTNKRAPGVPARFSGSLLGDKAALTLSGAQPEDEAEYYCALWYSNLWVFGTGTKVTVLGGGGSGGGGSGGGGSEVQLVESGGGLVQPGGSLKLSCAASGFTFNTYAMNWVRQASGKGLEWVARIRSKYNNYATYYADSVKDRFTISRDDSKNTLYLQMNSLKTEDTAVYYCVRHGNFGNSYVSWFAYWGQGTLVTVSSGGGGSASTKGPSVFPLAPSSKSTSGGTAALGCLVKDYFPEPVTVSWNSGALTSGVHTFPAVLQSSGLYELVSVVTVPSSSLGTQTYICNVNHKPSNTKVDKKVEPKSC chain 2: QIVLTQSPATLSLSPGERATLSCRASSSVSYIHWFQQKPGQAPRPWIYATSNLASGVPARFSGSGSGTDYTLTISSLEPEDFAVYYCQQWTSNPPTFGQGTKVEIKGGGGSGGGGSGGGGSQVQLVQSGAEVKKPGASVKVSCKASGYTFTSYNMHWVRQAPGQGLEWIGAIYPGNGDTSYNQKFKGKATLTADKSTSTAYMELSSLRSEDTAVYYCARSTYYGGDWYFNVWGQGTLVTVSSGGGGSRTVAAPSVFIFPPSDEQLKSGTASVVCLLNNFYPREAKVQWKVDNALQSGNSQESVTEQDSKDSTYSLLSSLTLSKADYEKHKVYACEVTHQGLSSPVTKSFNRGEC	–	binds
QLB1005-0003 (bispecific antibody, NCI/NIH CH1-CK stabilized Fab format; the CH1 and CK domains form a heterodimer via a disulphide bond; also called anti-CD3×CD20 BsAb; Fab format (VH-VL-CH1/VH-VL-CK)) chain 1: EVQLVESGGGLVQPGGSLKLSCAASGFTFNTYAMNWVRQASGKGLEWVARIRSKYNNYATYYADSVKDRFTISRDDSKNTLYLQMNSLKTEDTAVYYCVRHGNFGNSYVSWFAYWGQGTLVTVSSGGGGSGGGGSGGGGSQAVVTQEPSLTVSPGGTVTLTCRSSTGAVTTSNYANWVQQKPGQAPRGLIGGTNKRAPGVPARFSGSLLGDKAALTLSGAQPEDEAEYYCALWYSNLWVFGTGTKVTVLGGGGSASTKGPSVFPLAPSSKSTSGGTAALGCLVKDYFPEPVTVSWNSGALTSGVHTFPAVLQSSGLYELVSVVTVPSSSLGTQTYICNVNHKPSNTKVDKKVEPKSC chain 2: QVQLVQSGAEVKKPGASVKVSCKASGYTFTSYNMHWVRQAPGQGLEWIGAIYPGNGDTSYNQKFKGKATLTADKSTSTAYMELSSLRSEDTAVYYCARSTYYGGDWYFNVWGQGTLVTVSSGGGGSGGGGSGGGGSQIVLTQSPATLSLSPGERATLSCRASSSVSYIHWFQQKPGQAPRPWIYATSNLASGVPARFSGSGSGTDYTLTISSLEPEDFAVYYCQQWTSNPPTFGQGTKVEIKGGGGSRTVAAPSVFIFPPSDEQLKSGTASVVCLLNNFYPREAKVQWKVDNALQSGNSQESVTEQDSKDSTYSLLSSLTLSKADYEKHKVYACEVTHQGLSSPVTKSFNRGEC	–	binds
